PMC12002316 (Proceedings of the National Academy of Sciences of the …, 2025)

Biological target: the molecule itself
Test: cryo-EM structure

B1: Chloroflexus aurantiacus F1FO ATP synthase c-subunit (natural protein, Chloroflexus aurantiacus J-10-fl, UniProt A9WGS9 1-76, looked up)
chain: MEGLNLVATALAVGLGAIGPGVGIGIIVSGAVQAIGRNPEIENRVVTYMFIGIAFTEALAIFGLVIAFLIGFGVLQ
In the case of B1, the “stoichiometry N” value is reported as 10.
